This note sets out measurements from patent US20160008398A1.

One test has as its target 4-1BB (human) (UniProt Q07011).
The target of test [1] is CMV pp65 presented by HLA-A*0201.

In the test with 4-1BB (human), “dsRed-monomer-4-1 BBL fusion protein (from UniProt P41273) (ligand)” had a Granzyme B density near the immunological synapse (fold reduction) of 2.02.
Consider “CMV pp65-specific T lymphocytes (cells without a defined receptor)”, for which the T cell expansion after weekly restimulation with HLA-A*0201^+ pp65-transduced Caco-2 tumor cells in test [1] is 209 fold.
